# Assay results taken from publication PMC8601423 (PLoS ONE, 2021).
# Biological target: human ACE2-Fc (Q18-S740) recombinant protein (human, UniProt Q9BYF1 18-740)
# Assay: peptide or protein array
# Conditions: both partners purified
# Sequence of human ACE2-Fc (Q18-S740) recombinant protein (Q9BYF1 18-740): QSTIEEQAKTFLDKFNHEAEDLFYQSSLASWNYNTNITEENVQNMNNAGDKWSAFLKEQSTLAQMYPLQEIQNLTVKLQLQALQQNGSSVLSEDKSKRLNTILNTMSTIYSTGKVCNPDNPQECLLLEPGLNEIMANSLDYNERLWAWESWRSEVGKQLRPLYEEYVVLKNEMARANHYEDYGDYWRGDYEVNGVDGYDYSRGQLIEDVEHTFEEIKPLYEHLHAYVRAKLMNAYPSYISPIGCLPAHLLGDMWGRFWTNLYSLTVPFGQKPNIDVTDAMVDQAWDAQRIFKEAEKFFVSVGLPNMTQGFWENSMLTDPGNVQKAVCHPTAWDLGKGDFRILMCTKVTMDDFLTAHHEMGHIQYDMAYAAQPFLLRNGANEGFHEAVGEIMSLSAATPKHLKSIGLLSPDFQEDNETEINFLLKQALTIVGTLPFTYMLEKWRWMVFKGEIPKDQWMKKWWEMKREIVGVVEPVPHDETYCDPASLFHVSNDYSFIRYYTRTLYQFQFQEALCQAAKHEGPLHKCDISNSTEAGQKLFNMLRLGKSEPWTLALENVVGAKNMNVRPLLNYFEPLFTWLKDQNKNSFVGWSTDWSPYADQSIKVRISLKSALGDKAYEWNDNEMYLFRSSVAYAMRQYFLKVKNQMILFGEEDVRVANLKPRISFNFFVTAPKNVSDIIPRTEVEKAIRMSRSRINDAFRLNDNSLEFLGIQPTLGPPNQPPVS
binder,measurement,value
"EGFNCYFPLQSYGFQPTNGVGY [SARS-CoV-2 RBM peptide E484-Y508 with Q506-Y508 removed (C-terminal truncation, on peptide array)]",binding result,binds
SARS-CoV-2 RBM 20mer F486-Y505 (on peptide array) (peptide) peptide: not shown,binding result,binds
"SKVGGNYNYLYRLFRKSNLK [SARS-CoV-2 RBM peptide S438-K462 with S438-D442 removed (N-terminal truncation, on peptide array)]",binding result,binds
FNCYFPLQSYGFQPTNGVGYQPY,binding result,binds
"SNNLDSKVGGNYNYLYRLFRK [SARS-CoV-2 RBM peptide S438-K462 with S459-K462 removed (C-terminal truncation, on peptide array)]",binding result,binds
